Test results as given in doi:10.1101/2021.12.31.474618.

Target: OsCBMIP-His (OsRMC-His), secreted from rice suspension-cultured cells (rice)
Test: BLI

MoCel6A as used for binding kinetics (BLItz) (enzyme)
Kd: 21.9 nM
koff: 0.000845 s⁻¹
kon: 38900 M⁻¹ s⁻¹
